From paper PMC12748864, “Potent neutralization by antibodies targeting the MPXV A28 protein” (Nature Communications, 2025) come the findings set out here.

Settings in all cases: both partners purified
Assay [1] deals with MPXV A28 (OPG153), residues 2-361 (Monkeypox virus, template GenBank …, UniProt A0A7H0DNC4). The assay can be described thus: ELISA. Background: An ELISA detects its analyte on a solid surface through an enzyme-linked reagent.
The target in assay [2] is T1, VACV A26 (OPG153), residues 2-361 (Vaccinia virus strain IHDW, template …, UniProt P24758, strain).
T1 construct: also called VACV homolog of A28
The assay can be described thus: ELISA.

Assay [3] concerns the target T2, VACV A26 head domain (amino acids 1-397), strain Western Reserve (Vaccinia virus (strain Western Reserve), UniProt P24758).
T2 construct: also called residues 1-397 of A26
The assay can be described thus: crystal structure.

MPXV A28 (OPG153), residues 2-361, sequence (A0A7H0DNC4 whole entry, looked up, the tested form may be a part): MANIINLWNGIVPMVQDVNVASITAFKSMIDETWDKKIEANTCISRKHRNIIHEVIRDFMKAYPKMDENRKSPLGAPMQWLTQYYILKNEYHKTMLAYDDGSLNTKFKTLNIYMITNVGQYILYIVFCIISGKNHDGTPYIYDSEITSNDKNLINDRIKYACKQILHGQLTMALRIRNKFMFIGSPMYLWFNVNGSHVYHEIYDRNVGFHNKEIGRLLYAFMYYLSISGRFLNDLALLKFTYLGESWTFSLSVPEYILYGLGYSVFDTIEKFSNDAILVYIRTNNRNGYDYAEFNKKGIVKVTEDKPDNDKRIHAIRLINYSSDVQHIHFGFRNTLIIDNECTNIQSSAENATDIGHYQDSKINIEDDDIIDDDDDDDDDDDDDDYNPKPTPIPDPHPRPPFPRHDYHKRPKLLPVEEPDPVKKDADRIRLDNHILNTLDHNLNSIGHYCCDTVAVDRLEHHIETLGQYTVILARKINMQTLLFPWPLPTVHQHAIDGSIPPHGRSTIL

B1: Germline 1 (germline-reverted 10M2146 / 10M2154) (antibody, V domains shown)
VH: EVQLVQSGAEVKKPGESLKISCKGSGYSFTSYWIGWVRQMPGKGLEWMGIIYPGDSDTRYSPSFQGQVTISADKSISTAYLQWSSLKASDTAMYYCARRPKYYYDSSGYYNWLDPWGQGTLVTVSS
VL: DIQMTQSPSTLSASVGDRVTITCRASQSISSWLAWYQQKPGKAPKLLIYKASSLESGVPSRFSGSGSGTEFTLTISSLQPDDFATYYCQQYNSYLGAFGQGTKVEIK
Regarding B1, the binding result in assay [1] and in assay [2] was “binds” each time.

B2: mAb 10M2146 (human IgG1, anti-A28) (antibody, V domains shown)
VH: EVQLVQSGAEVKKPGESLKISCKGSGYSFTTHWIGWVRQMPGEGLEWLGIIYPGDSETKYSPSFQGQVTISVDKSINTAYLHWSSLKASDTAMYFCARRPKNYYDASGYYNWLDPWGQGTLVTVSS
VL: EIQMTQSPSTLSASVGDRVTITCRASQSLSTWLAWYQQKPGKAPKLLIYKASILESGVPSRFSASGSGTEFTLTISGLQPDDFATYYCQQYNSYLGAFGQGTKVEIK
For B2, the binding result in assay [1] and in assay [2] was “binds” in each case.

B3: Fab 10M2146 (Fab, V domains shown)
VH: B2 VH
VL: B2 VL
notes: also called 10M2146 F(ab)
Turning to B3, in assay [3], the binding result is reported as “binds”.
